{"source": "paper PMC8960791", "about": "(2022)", "target": "soluble HLA-E-VL9, HLA-E*01:03 heavy chain refolded with β2-microglobulin and synthetic VL9 peptide (human | )", "assay": "SPR"}
{"binder": "3H4 IgG, recombinant 3H4 in a human IgG1 backbone (antibody, V domains shown) VH: EVQLQESGPELVKPGASVKIPCKASGYTFTDYNMDWVKQSHGKSLEWIGDINPNNGGTIYNQKFKGKATLTVDKSSSTAYMELRSLTSEDTAVYYCARPDYYGSSYGWYFDVWGTGTTVTVSS VL: DIVITQSPSSMYASLGERVTITCKASQDINSYLSWFQQKPGKSPKTLIYRANRLVDGVPSRFSGSGSGQDYSLTISSLEYEDMGIYYCLQYDEFPLTFGAGTKLELK", "values": [{"measurement": "koff", "result": 0.51, "unit": "s⁻¹"}]}
